Source: IntAct's records for PubMed 16304051

B1: Multiple coagulation factor deficiency protein 2 (Homo sapiens), Q8NI22 (parent)
chain: MTMRSLLRTPFLCGLLWAFCAPGARAEEPAASFSQPGSMGLDKNTVHDQEHIMEHLEGVINKPEAEMSPQELQLHYFKMHDYDGNNLLDGLELSTAITHVHKEEGSEQAPLMSEDELINIIDGVLRDDDKNNDGYIDYAEFAKSLQ
partner: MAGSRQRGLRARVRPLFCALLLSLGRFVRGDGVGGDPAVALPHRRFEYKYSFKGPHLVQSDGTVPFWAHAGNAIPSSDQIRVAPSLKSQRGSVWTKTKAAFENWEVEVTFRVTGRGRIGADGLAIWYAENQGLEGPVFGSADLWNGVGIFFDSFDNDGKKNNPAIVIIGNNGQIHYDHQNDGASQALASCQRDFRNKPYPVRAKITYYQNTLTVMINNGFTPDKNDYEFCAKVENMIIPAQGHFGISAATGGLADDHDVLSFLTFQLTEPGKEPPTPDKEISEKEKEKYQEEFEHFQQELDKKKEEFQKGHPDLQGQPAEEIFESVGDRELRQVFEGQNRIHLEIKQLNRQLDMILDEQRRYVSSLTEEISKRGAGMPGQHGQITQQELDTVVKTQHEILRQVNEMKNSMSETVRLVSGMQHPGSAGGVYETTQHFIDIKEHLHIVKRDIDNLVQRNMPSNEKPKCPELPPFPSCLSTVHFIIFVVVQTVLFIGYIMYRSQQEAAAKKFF

Variants of: B1
Conditions: with lman1_human LMAN1, P49257

| effect of a mutation on the interaction | Variant |
| --- | --- |
| with no effect | I136T |
